Measured values reported in the DeepSol protein solubility set.

Assay: soluble on expression in E. coli; label from the status in PepcDB or PDB records

Row | Sequence | soluble on expression in E. coli
1 | MGSDKIHHHHHHMASPEYEEYPSADGVMDDATLKDAEIRDWNWAVLPKGSVSTRFAAPSGSLAMVAMGKPQNPRVVLVPGATGSKEDFAVMMPELAEAGFYVLSYDLAGQYESAGAGPENLVPPRRHYDYELFVNDFVAVLESGGVPAHVVGYSFAAIVAQIAYSKRPELFRSFTLLSCPPLTGQCFRGISRFGRFTGLANGRVGAALMIWGIRRNVNKVSPNRLRFVRNRFRFTRRQSVRDIYGLMKNVPDLREHLAAATVPKFVAVGEHDLWPLHLHRQFAQSIGARISVYRGGHSPSETSPHQFGRDLLAMYAEGG | not soluble
2 | MGSDKIHHHHHHMATLTTNTPIATGSTFSAASLQFLNKLAQNNSRDWFKAHQAEYEETVRTPALQFIEQMQPSILALSPRLTAVPKKVGGSLMRPQRDSRFSKDKTPYKTNIGIQFRHFQGKDVHAPGLYLHIAEDGCFIAAGIWHPESKALNAIRTCIDENPNGYKKALQTLQNHGFTMDGDSLTRPPKGFDKNHPMLTELKRKDFIAVKNIAFEELCRPDAACFCAEQFAHCTQLMAYLCFALDLDF | not soluble
3 | MGSDKIHHHHHHMATTTIYEDLSAAYDLENMQALMATKDLLGAMLRIHFILEAFLDIWCNKITNCEDFFDLKRFTSFDTKLEISKKLGLPSELAVVFKLFNKIRNKFAHRPNYVICSNDLDNIHQAINQINTHDNHSKFTMIVFNEREIRWDTPDIPIIDSLLLNYFTLSQKVNDVFANEFSKRNISFTIQGQQA | not soluble
4 | MGSDKIHHHHHHMAVIYYDKDADLNLIKDKKIAIIGYGSQGHAHALNLKDSGLNVVVGLREGSKSWKKAEEQGLTVKTIEEAAKEADIIMILIPDEHQPEIYKKYIEKHLTEGKMLMFAHGFNIHYHQIIPPKNVDVTMIAPKSPGHIVRREYVEGRGVPALVAVYQDYTGKAKDIALAYAKGIGVTRAGVIETTFKEETETDLFGEQAVLCGGVTALIKAGFETLVDAGYQPEIAYFECLNELKLIVDLIYEGGLSFMRYSVSNTAEYGDYISQEKIVTKEVRENMKQMLKDIQTGKFAKDWILENQAGRPYFYTMRKKESEHLIEKVGKELRKMMPWLKERNVDEE | not soluble
5 | MGSDKIHHHHHHMAVRKAMKYSLGPVLWYWPKETLEEFYQQAATSSADVIYLGEAVCSKRRATKVGDWLEMAKSLAGSGKQIVLSTLALVQASSELGELKRYVENGEFLIEASDLGVVNMCAERKLPFVAGHALNCYNAVTLKILLKQGMMRWCMPVELSRDWLVNLLNQCDELGIRNQFEVEVLSYGHLPLAYSARCFTARSEDRPKDECETCCIKYPNGRNVLSQENQQVFVLNGIQTMSGYVYNLGNELASMQGLVDVVRLSPQGTDTFAMLDAFRANENGAAPLPLTANSDCNGYWRRLAGLELQA | not soluble
6 | MGSDKIHHHHHHMAVTVENLTKRYGEKVALDNVSFDVKKGDILGIIGKSGAGKTTLIKILRGVESFDEGKIEVCGKTENLREITAIHLQRNFALWAEPAIYNIIRKLYAVRTDSDEGLPLEEEMEEYRKDATEILKLVGLEHKKDAYSNILSGGEKQRLILGRQLAKIYAKNGDGVLLLDEPATMACPASKQILLDVLKNINEKLGVTIIVTSHLPEIHKYLCKSCILIENGKIIMKDTPEKVVDEFLKDMVEAYDRLSKPTDKTVVEVEDASKRYYVVNGGETLNLKDISFKVKEKEILSILGPSGTGKSVILRLLAGLEAPDKGVVKLEGIDLKDFGWNRMNLRRKIGIMHQEFSLAHYLTVNELLKYRLGVKSIETVESAKLKAAELGISPKMVDGLYQLLDLPETEMRNKLDKIGISEMVVRKLFPAKPVEYDANELLEALDLNKETLNKKPTELSGGEKVRVAMALQLALEPDILLLDEPFGDLDPLTLREVSNYLKKINDTVGTTIILISHHVELIKEISDRAILIDEGKLLMNGNPEEICEKFIERSNSKFMNQ | not soluble
7 | MGSDKIHHHHHHMAYLTIIKNGETIDHRKYGLKLLSFRKESLTHRTNFEEIGGRHGAIDTGTTFGERKLKATFLMQGVDHLDYQLMIDEVYALFACEDSIELIDSRQPGKVWTVKPSSTFEPDDLNPRSGKFEIEFTSPLPFASSYGSTLDPFTFGEEVWQIGQGLIPSDSLVYRHRTTRFSIFNAGNVEVDPCLEMPLNIVYKGASSNFSIKNKTTGQTISYNGTSKSTDSIKLEGLRHLKNGISIYGNTNRGYVSLKPGWNDFELTGTSGSFEITFDFFFFYK | not soluble
